From patent publication US20250197483A1
Substitutions are numbered along the chain they refer to.

Target: HIV-1 Env of the 208-virus panel (Env-pseudoviruses)
Assay: cell-based or functional assay

B1: N6LS.C1 (antibody, V domains shown)
VH: RAHLVQSGTAMKKPGASVRVSCQTSGYTFTAHILFWFRQAPGRGLEWVGWIKPQYGAVNFGGGFRDRVTLTRQLSQDPDDPDWGIAYMDIDGLKPDDTAVYYCARDRSYGDSSWALDAWGQGTTVVVSA
VL: YIHVTQSPSSLSVSIGDDVTINCQTSQGVGSDLHWYQHKPGRAPKLLIHHTSSVEDGVPSRFSGSGFHTSFNLTISDLQADDIATYYCQVLQFFGRGSRLHIKR
**Q.** Which results are given for B1?
**A.** neutralization of Env-pseudoviruses on TZM-bl cells, share of the panel at IC80 <1 µg/ml (% of 208 viruses): > 73; neutralization of Env-pseudoviruses on TZM-bl cells, share of the panel at IC80<1 µg/ml (% of viruses (208-virus panel)): 73

B2: N6LS.C30 (antibody, V domains shown)
VH: B1 VH with K13E, D91R
VL: B1 VL with D18E
**Q.** What does the source list for B2?
**A.** neutralization of Env-pseudoviruses on TZM-bl cells, share of the panel at IC80 <1 µg/ml (% of 208 viruses): > 73; neutralization of Env-pseudoviruses on TZM-bl cells, share of the panel at IC80<1 µg/ml (% of viruses (208-virus panel)): 77

B3: VRC07-523LS.v14 (antibody, V domains shown)
VH: QVRLSQSGGQMKKPGDSMRISCDASGYEFINCPINWIRLAPGKRPEWMGWMKPRFGAVSYARQLQGRVTMTRQLSQDPDDPDWGTAFLELRSLTSDDTAVYFCTRGKYCTARDYYNWDFEHWGQGTPVTVSS
VL: LTQSPGTLSLSPGETAIISCDTSQYGSLAWYQQRPGQAPRLVIYSGSTRAAGIPDRFSGSRWGPDYNLTISNLESGDFGVYYCQQYEFFGQGTKVQVDI
**Q.** For B3, which neutralization of Env-pseudoviruses on TZM-bl cells, share of the panel at IC80 less than 1 µg/ml (% of the 208-virus panel) is on record?
**A.** 92

B4: VRC07-523LS.v32 (antibody, V domains shown)
VH: B3 VH with D23S, K107S
VL: B3 VL with D21S
**Q.** Which neutralization of Env-pseudoviruses on TZM-bl cells, share of the panel at IC80 less than 1 µg/ml (% of the 208-virus panel) does the source give for B4 here?
**A.** 92
